Data set [1] concerns the target T1, PiCypA (cyclophilin A-like protein) (Piriformospora indica, UniProt C6KGV3 1-164). The data set can be described thus: ITC.
The target in data set [2] is T1, PiCypA (cyclophilin A-like protein). The data set can be described thus: ITC. The source holds these as a separate data set.

As for AAAAAAAAAAAAA (ssRNA) [13 mer poly-A RNA], in data set [1], the binding result is “no binding”.
AUAGCCUCAACCG (ssRNA) [13 mer RNA] showed a Kd in data set [2] of 22.5 µM.

As a reminder, the Kd is the equilibrium constant for the complex coming apart.
